The text below walks through data of article PMC10517016, “SCARB2 drives hepatocellular carcinoma tumor initiating cells via enhanced MYC transcriptional activity” (Nature Communications, 2023).

The target of this assay is T1, Purified His-tagged MYC (UniProt P01106 1-454).
T1 construct: MYC, purified recombinant protein bought from Origene; also called MYC (TP760019); source: bought: Origene (TP760019), purified
As to the kind of experiment: co-IP; in vitro: 5 ug of each purified protein mixed in 100 ul of 1% NP-40, 120 mM NaCl, 40 mM tris-HCl pH 7.4, 1.5 mM sodium orthovanadate, 50 mM sodium fluoride, 10 mM sodium pyrophosphate, protease inhibitors, 6 h at 4 °C, then immunoprecipitation. As to conditions: both partners purified.

T1 sequence (P01106 whole entry): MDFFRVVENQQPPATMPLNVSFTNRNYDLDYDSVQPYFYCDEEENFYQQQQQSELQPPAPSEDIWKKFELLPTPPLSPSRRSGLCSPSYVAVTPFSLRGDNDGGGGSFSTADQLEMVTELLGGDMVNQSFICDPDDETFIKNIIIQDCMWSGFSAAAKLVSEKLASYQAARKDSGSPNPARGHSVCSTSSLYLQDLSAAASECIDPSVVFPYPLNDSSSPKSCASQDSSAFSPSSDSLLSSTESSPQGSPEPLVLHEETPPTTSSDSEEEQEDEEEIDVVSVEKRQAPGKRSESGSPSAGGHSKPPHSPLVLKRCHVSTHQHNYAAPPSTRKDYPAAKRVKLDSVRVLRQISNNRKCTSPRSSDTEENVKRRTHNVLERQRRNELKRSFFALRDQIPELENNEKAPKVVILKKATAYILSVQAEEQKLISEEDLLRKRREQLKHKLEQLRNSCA

B1: Purified GST-tagged HDAC3 (enzyme, UniProt O15379 1-428, looked up)
chain: MAKTVAYFYDPDVGNFHYGAGHPMKPHRLALTHSLVLHYGLYKKMIVFKPYQASQHDMCRFHSEDYIDFLQRVSPTNMQGFTKSLNAFNVGDDCPVFPGLFEFCSRYTGASLQGATQLNNKICDIAINWAGGLHHAKKFEASGFCYVNDIVIGILELLKYHPRVLYIDIDIHHGDGVQEAFYLTDRVMTVSFHKYGNYFFPGTGDMYEVGAESGRYYCLNVPLRDGIDDQSYKHLFQPVINQVVDFYQPTCIVLQCGADSLGCDRLGCFNLSIRGHGECVEYVKSFNIPLLVLGGGGYTVRNVARCWTYETSLLVEEAISEELPYSEYFEYFAPDFTLHPDVSTRIENQNSRQYLDQIRQTIFENLKMLNHAPSVQIHDVPADLLTYDRTDEADAEERGPEENYSRPEAPNEFYDGDHDNDKESDVEI
notes: Histone deacetylase 3, purified recombinant protein bought from Sino Biological; also called HDAC3 (11511-H20B); source: bought: Sino Biological (11511-H20B), purified
As for B1, the binding result is given as “binds”.
